How the values were obtained:
[1] = substrate: OCCc1ccc(O)cc1; test: Michaelis-Menten kinetics of RrT4GT (RrUGT3), tyrosol 4-O-glucosylation; assay type: biochemical, Rhodiola rosea; conditions: other: substrate tyrosol (0.01-5.0 mM), 10 mM UDP-glucose, pH 8.0, 30° C., 10 min
Experimental: (§1) Kinetic characterization of UGTs was conducted in 200 μL reaction buffer (50 mM Tris, pH 8.0) containing 10 mM UDP-glucose and various concentrations of tyrosol (0.01-5.0 mM). Reactions were started with addition of recombinant enzyme, incubated at 30° C. for 10 minutes, and quenched by addition of 200 μL of methanol. The reaction mixed was then analyzed by LC-HRAR-MS as described above. Compounds were separated by reversed-phase chromatography with a ramp gradient of solvent A (0.1% formic acid in H2O) and solvent B (0.1% formic acid in acetonitrile): 5% solvent B for 0.5 min, 5-55% solvent B over 6 min, 55-5% solvent B over 1.0 min and a final equilibration of 5% solvent B for 1 min with a flow rate at 0.6 mL/min. Product formation was measured using select ion monitoring in positive mode for a centroid center mass of 318.15. Product mass was calculated by comparison to a standard curve of the NMR verified plant purified salidroside and icariside D2 samples.
(§2) Kinetic constants such as Km and Vmax were determined by fitting raw data to the Michaelis-Menten equation using the nonlinear regression function in Prism (version 7.0).

[2] = substrate: OCCc1ccc(O)cc1; test: Michaelis-Menten kinetics of RrT8GT (RrUGT33), tyrosol 8-O-glucosylation; assay type: biochemical, Rhodiola rosea; conditions: other: substrate tyrosol (0.01-5.0 mM), 10 mM UDP-glucose, pH 8.0, 30° C., 10 min
Experimental: as §1, §2

B1: Rhodiola rosea RrT4GT (RrUGT3), tyrosol:UDP-glucose 4-O-glucosyltransferase, SEQ ID NO: 8 (Rhodiola rosea) (protein)
chain: MSGTPHIAILPSPGMGHLIPMAEFAKRLVHHHNFSITFVIPTDGPPSSAYQQVLTSLPSSIDHIFLPQVDLTDVVSQSPAHPRIETLISLTVARSLSSLRTTLSSLQSSKNLVSLVVDLFGTDAFDPAIELGISPYIFFPSTAMTLSLFLYMPQLDKSVTCEFRHMTDLVRIPGCVPVRGSDLFDPVQDRTDEAYKWVIHHSNRYPMAEGVIENSFMELEHGALKYLQTVQSGKPPVYAVGPLIKMDYDVDDSGSKIIEWLDDQPVGSVLFVSFGSGGTLSYEQMTELAHGLESSQQRFLWVVRSPNQIPNSTYFSVQSQKDPLAYLPEGFLNRTEGRGLVVSNWAPQAQILSHGSTGGFMSHCGWNSILESVVHGVPIIAWPLYAEQKMNSIIVVEDVKVALRPAGVGERVVERSEITAVVKALMEGEEGKKVRNRMKELKEAAARAVSDDGASTIAIADLAQKWRSSMKH
[1]
  Km: 4110 ± 80 µM
  kcat: 481.6 ± 3.91 s⁻¹
  kcat/Km: 117000 M⁻¹ s⁻¹

B2: Rhodiola rosea RrT8GT (RrUGT33), tyrosol:UDP-glucose 8-O-glucosyltransferase, SEQ ID NO: 20 (Rhodiola rosea) (protein)
chain: MSLIEKPLTAIETREKPHAVCIPYPAQGHINPMMQLAKLLHHSGFHITFVHTEYNYDRLVKSQGSACVAGLPDFRFEAIPDGLPSTNGDVTQDIPLLSSSTSKTCLKPFKELLKRLQDKCKELPDDVPPLSCIVSDAAMSFTIDASEEFGVPIALLWTASACGFLGYTHYPYLIDRGVIPLKDESQLTNGYLDMSIDGIPCMEGIRLRDLPSFLRTTDLDDMMFSYILHEIKQVSRGSAIILNTFEALDHDVLDSLSKIYQNVILPVGPLHVSLNKIPKHYPLQSLSSNLWKDDTDCIPWLSSKASKSVIYVNFGSITTVSPKQIVEFAWGLANSKHPFLWIIRPDLVAGEASIIPQDFMDETKGRGLLAGWCDQELVLNHPSIGGFLTHCGWNSIIESISAGVPTVCWPFFAEQQTNCWFACKKWCIGMEMHTDVKRDEVDKLLRELMEGDKGEELKRKATNWKRLAEEAVSSTGLSTLNFRTLVNQVLLSKTKHIR
[2]
  Km: 1370 ± 50 µM
  kcat: 576.2 ± 5.68 s⁻¹
  kcat/Km: 421000 M⁻¹ s⁻¹
